US20220112276A1 (Janssen / Centocor, published 2022)

T1: mouse pIgR extracellular domain (ECD) (mouse, UniProt O70570 19-645)
T1 construct: Bought from R&D Systems (Cat 2800-PG-050); also called mpIgR ECD
T1 sequence: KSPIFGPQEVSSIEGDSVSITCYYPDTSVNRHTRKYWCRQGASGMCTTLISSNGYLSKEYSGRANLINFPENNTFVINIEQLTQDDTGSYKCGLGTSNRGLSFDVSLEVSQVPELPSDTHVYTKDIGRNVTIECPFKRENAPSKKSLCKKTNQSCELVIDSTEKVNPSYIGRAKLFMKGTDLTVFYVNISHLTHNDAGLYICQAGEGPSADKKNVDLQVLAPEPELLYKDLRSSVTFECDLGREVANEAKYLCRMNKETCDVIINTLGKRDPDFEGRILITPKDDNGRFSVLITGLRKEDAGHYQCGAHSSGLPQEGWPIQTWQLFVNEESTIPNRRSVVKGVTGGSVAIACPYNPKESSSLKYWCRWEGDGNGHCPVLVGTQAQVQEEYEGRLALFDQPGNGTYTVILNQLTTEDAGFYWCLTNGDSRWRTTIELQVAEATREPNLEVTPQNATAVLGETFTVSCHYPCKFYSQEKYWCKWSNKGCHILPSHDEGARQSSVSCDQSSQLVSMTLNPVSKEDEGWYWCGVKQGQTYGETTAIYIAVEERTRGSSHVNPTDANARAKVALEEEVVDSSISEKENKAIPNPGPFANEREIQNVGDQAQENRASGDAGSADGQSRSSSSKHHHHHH

T2: rat pIgR extracellular domain (rat, UniProt P15083 19-643)
T2 construct: extracellular domain
T2 sequence (looked up): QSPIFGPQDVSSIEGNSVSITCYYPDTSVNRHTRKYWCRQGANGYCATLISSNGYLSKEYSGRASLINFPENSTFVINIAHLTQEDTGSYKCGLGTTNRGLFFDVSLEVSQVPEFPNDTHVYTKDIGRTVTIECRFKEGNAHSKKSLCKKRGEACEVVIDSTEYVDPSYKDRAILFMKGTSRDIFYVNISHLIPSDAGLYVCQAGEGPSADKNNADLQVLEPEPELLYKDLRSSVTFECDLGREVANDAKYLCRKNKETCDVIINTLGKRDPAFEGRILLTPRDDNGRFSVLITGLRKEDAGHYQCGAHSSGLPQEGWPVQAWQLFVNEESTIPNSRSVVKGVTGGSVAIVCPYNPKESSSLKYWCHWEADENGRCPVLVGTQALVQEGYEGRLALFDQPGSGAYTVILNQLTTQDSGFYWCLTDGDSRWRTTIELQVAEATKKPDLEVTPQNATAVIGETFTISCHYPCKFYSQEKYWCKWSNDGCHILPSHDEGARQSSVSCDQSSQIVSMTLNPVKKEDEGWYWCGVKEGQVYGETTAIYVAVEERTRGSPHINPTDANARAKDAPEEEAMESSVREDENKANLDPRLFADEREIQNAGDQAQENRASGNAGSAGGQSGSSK


Key:
[1] = biological target: T3, human pIgR extracellular domain (ECD) (human, UniProt P01833 19-638); assay: SPR
T3 construct: Bought from R&D Systems (Cat 2717-PG-050); also called hpIgR ECD

[2] = biological target: T1, mouse pIgR extracellular domain (ECD); assay: SPR, VHH captured by anti-Fc, ECD analyte
How it was run: (§1)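 Anti-human Fc surface captured VHH at 0.5 ug/ml (~200-300 RU); running buffer HBSP with 100 ug/ml BSA, 30 μL/min. Single-cycle kinetics with ECD injected low to high from 30 nM in 3-fold dilutions, dissociation 30 min. Double-referenced data globally fit to 1:1 Langmuir model for kon, koff, KD.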

[3] = biological target: T2, rat pIgR extracellular domain; assay: SPR, VHH captured by anti-Fc, ECD analyte
How it was run: as §1

[4] = biological target: T4, cynomolgus monkey pIgR extracellular domain (cynomolgus monkey, UniProt A0A2K5WMU9 19-638); assay: SPR, VHH captured by anti-Fc, ECD analyte
T4 construct: extracellular domain
How it was run: as §1

T3 sequence (P01833 other isoform, or with tags, fused parts or gaps): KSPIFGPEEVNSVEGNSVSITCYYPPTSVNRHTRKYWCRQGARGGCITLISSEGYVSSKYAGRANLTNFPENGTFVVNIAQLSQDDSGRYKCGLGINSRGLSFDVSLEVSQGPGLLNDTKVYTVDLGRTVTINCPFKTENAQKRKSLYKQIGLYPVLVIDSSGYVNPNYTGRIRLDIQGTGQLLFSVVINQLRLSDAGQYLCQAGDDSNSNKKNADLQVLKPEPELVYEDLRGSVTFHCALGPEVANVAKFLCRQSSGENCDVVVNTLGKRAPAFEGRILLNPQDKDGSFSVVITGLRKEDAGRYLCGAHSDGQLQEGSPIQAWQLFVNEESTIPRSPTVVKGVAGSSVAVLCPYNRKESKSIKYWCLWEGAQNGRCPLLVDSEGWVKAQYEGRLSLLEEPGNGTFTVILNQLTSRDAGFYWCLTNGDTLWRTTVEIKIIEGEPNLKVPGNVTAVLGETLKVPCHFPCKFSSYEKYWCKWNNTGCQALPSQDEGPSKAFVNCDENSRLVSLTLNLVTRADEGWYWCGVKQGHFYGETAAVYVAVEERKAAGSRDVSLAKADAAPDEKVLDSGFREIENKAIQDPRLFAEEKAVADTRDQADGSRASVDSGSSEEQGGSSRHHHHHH
T4 sequence (A0A2K5WMU9 entry or part of it): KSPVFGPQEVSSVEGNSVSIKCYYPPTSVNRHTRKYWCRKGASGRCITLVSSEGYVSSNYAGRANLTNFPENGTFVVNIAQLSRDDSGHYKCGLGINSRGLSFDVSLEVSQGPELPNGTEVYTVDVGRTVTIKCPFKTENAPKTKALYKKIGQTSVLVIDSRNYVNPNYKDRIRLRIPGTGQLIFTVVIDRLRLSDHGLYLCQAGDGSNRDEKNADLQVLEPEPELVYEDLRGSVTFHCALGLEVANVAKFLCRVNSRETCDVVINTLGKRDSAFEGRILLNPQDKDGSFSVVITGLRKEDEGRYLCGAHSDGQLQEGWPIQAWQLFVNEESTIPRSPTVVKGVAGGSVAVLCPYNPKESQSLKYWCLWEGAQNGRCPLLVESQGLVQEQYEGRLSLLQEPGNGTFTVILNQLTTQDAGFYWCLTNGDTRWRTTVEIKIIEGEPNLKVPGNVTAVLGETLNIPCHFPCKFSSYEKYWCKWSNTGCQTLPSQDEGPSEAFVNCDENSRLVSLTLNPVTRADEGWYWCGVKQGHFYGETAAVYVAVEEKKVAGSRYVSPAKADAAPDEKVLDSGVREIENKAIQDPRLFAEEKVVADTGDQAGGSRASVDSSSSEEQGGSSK

Binder	binding result [1]	Kd [2] [nM]	Kd [3] [nM]	Kd [4] [nM]
02H11R3 VHH Mono-Fc (Fc fusion) EVQLVESGGGSVQAGGSLRLSCAASGRTFSNYAMGWFRQAPGKEREFVAGISRSGGSTYSADSVKGRFTISRDNAKNTVYLQMNSLKPEDTAVYYCAADGLDYALGFRGDYWGQGTQVTVSSSPAPELLGGPSVFLFPPKPKDTLMISRTPEVTCVVVDVSHEDPEVKFNWYVDGVEVHNAKTKPREEQYNSTYRVVSVLTVLHQDWLNGKEYKCKVSNKALPAPIEKTISKAKGQPREPQVYTKPPSREEMTKNQVSLSCLVKGFYPSDIAVEWESNGQPENNYKTTVPVLDSDGSFRLASYLTVDKSRWQQGNVFSCSVMHEALHNHYTQKSLSLSPGK	no binding (tested: 30 nM)	0.71	1.74	–
01E11R2 VHH Mono-Fc (Fc fusion) QVQLVESGGGLVQTGGSLRLSCAASGLTFSSYTMGWFRQAPGKEREFVAAISWGGASTWYADSVKGRFTISRDNAKTMVYLQMNGLKPEDTAVYYCAKGRNNGYATAVRAYDYWGQGTLVTVSSSPAPELLGGPSVFLFPPKPKDTLMISRTPEVTCVVVDVSHEDPEVKFNWYVDGVEVHNAKTKPREEQYNSTYRVVSVLTVLHQDWLNGKEYKCKVSNKALPAPIEKTISKAKGQPREPQVYTKPPSREEMTKNQVSLSCLVKGFYPSDIAVEWESNGQPENNYKTTVPVLDSDGSFRLASYLTVDKSRWQQGNVFSCSVMHEALHNHYTQKSLSLSPGK	no binding (tested: 30 nM)	20.6	22.5	86.1

Continued by falling Kd [2], values first:

binding result [1]	Kd [2] [nM]	Kd [3] [nM]	Kd [4] [nM]	Binder
no binding (tested: 30 nM)	1.34	0.448	–	02D06R3 VHH Mono-Fc (Fc fusion) QVQLVESGGGLVQPGGRLRLSCAASGSIFSIRDMAWYRQAPGKQREWVAIAARGGSTHYADSVKGRFTISRDNAKNTVYLQMNTLEPEDTAAYYCNAEVATMIQPGFRDYWGQGTQVTVSSSPAPELLGGPSVFLFPPKPKDTLMISRTPEVTCVVVDVSHEDPEVKFNWYVDGVEVHNAKTKPREEQYNSTYRVVSVLTVLHQDWLNGKEYKCKVSNKALPAPIEKTISKAKGQPREPQVYTKPPSREEMTKNQVSLSCLVKGFYPSDIAVEWESNGQPENNYKTTVPVLDSDGSFRLASYLTVDKSRWQQGNVFSCSVMHEALHNHYTQKSLSLSPGK
no binding (tested: 30 nM)	0.796	1.61	–	01G03R3L VHH Mono-Fc (Fc fusion) QVQLVESGGGSVQAGGSLRLSCAASGRTFSNYAMGWFRQAPGKEREFVAGISRSGGSTYSADSVKGRFTISRDNAKNTVYLQMNSLKPEDTAVYYCAADGLDYALGFRGDYWGQGTLVTVSSSPAPELLGGPSVFLFPPKPKDTLMISRTPEVTCVVVDVSHEDPEVKFNWYVDGVEVHNAKTKPREEQYNSTYRVVSVLTVLHQDWLNGKEYKCKVSNKALPAPIEKTISKAKGQPREPQVYTKPPSREEMTKNQVSLSCLVKGFYPSDIAVEWESNGQPENNYKTTVPVLDSDGSFRLASYLTVDKSRWQQGNVFSCSVMHEALHNHYTQKSLSLSPGK
